# Reference: patent US20240376189A1 (University of Pennsylvania, published 2024)
# T1: human C5a (human, UniProt P01031 678-751, biotinylated in the U937/C5aR ligand blocking assay (site not stated))
# T1 construct: also called human antigen; huC5a
# T1 sequence: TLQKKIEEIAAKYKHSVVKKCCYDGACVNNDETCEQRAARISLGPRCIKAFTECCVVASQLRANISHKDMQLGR
# Columns and labels:
# human C5a [1] = target: T1, human C5a; experiment: ligand blocking, flow cytometry: antibody titrated against 20 nM biotinylated human C5a binding to U937/C5aR cells, Experiment #1
# Procedure: (§1) U937/C5aR cells were washed twice by PBS and suspended in assay buffer (PBS+0.1% BSA) at the density of 3×10⁶ cells/ml. […] 1000 rpm centrifuge for 3-5 min at 4° C., remove supernatant and cells were washed by pre-cold PBS twice. Add 100 μl FITC conjugated streptavidin (eBioscience) to cells and incubate on ice for another 30 min. Centrifuge at 4° C., remove supernatant and cells were washed by pre-cold PBS twice. Add 150 μl 0.5% PFA to suspend cells and detect the signal by FACS (Beckman, Cytoflex). IC₅₀ value was calculated by GraphPad Prism software.
# (§2) Mean fluorescence intensities were measured at each antibody concentration. U937 cells without addition of antibodies was used as the low control.
# human C5 [2] = target: T2, human C5 (human, UniProt P01031 19-673; P01031 678-1676, limits assumed); experiment: ELISA, affinity for human C5 against affinity for human C5a
# T2 construct: In the sheep RBC lysis assay, C5 is the C5 of normal human serum; also called huC5
# human C5 [3] = target: T2, human C5; experiment: BLI (Gator), antibody on anti-human IgG Fc probes, 40 nM human C5 bound 600 s at pH 7.4, 600 s dissociation at pH 5.8
# Procedure: (§3) pH dependency of the humanized anti-C5a constructs were tested using C5 binding assays. A Biolayer interferometry instrument, Gator™ (Probe life Inc., USA) was used to determine pH dependent dissociation of histidine mutants and the benchmark antibodies. Briefly, anti-human IgG Fc (FHC) Probes were equilibrated in the kinetic (K) buffer of Phosphate-buffered saline containing 0.02% bovine serum albumin and 0.002% Tween20 pH 7.4. Antibodies were captured onto the sensors by dipping them into 200 μL of transfection supernatant for 600 s at pH 7.4. The biosensors were then incubated with human C5 prepared in the K buffer pH 7.4 (40 nM) for 600s followed by 600-second dissociation period in K Buffer, pH 7.4 or pH 5.8. The data were processed and analyzed by the Gator evaluation software.
# human C5 [4] = target: T2, human C5; experiment: ELISA, antibody titrated on C5-coated plate
# Excerpt: The anti-C5a constructs were further tested for their affinities to human C5 using ELISA. Off-target C5 binding reduces availability of anti-C5a antibodies (C5-mediated “sink effect”). […] Each data point was the mean of 2 replicates.
# human C5a [5] = target: T1, human C5a; experiment: cell-based or functional assay
# human C5 [6] = target: T2, human C5; experiment: BLI (Gator), percentage dissociation from human C5 at pH 5.8 over pH 7.4
# Procedure: as §3
# human C5 [7] = target: T2, human C5; experiment: BLI (Gator), antibody on anti-human IgG Fc probes, 40 nM human C5 bound 600 s at pH 7.4, 600 s dissociation at pH 7.4
# Procedure: as §3
# human C5a [8] = target: T1, human C5a; experiment: ligand blocking, flow cytometry: antibody titrated against 20 nM biotinylated human C5a binding to U937/C5aR cells, Experiment #2
# Procedure: as §1, §2
# human C5a [9] = target: T1, human C5a; experiment: ELISA, antibody titrated on C5a-coated plate
# human C5a [10] = target: T1, human C5a; experiment: cell-based or functional assay; remark: listed apart in the source
# cynomolgus antigen [11] = target: T3, cynomolgus antigen (cynomolgus); experiment: SPR, scFv captured, cynomolgus antigen as analyte
# T3 construct: also called cyno antigen; cynomolgus monkey C5a
# cynomolgus antigen [12] = target: T3, cynomolgus antigen; experiment: SPR, scFv captured via anti-c-myc/anti-His, 60 nM cynomolgus antigen as analyte, 1:1 fit
# Procedure: The activator was prepared by mixing 400 mM EDC (1-ethyl-3-(3-dimethylaminopropyl) carbodiimide) and 100 mM NHS (N-hydroxysuccinimide) (GE) immediately prior to injection. The CMS sensor chip was activated for 600 s with the mixture at a flow rate of 10 μL/min. Mixture of anti-c-myc and anti his antibodies in 10 mM NaAc (pH 4.5) was then injected to Fc1 and Fc2 of channel 1 to channel 8 for 600 seconds at a flow rate of 10 μL/min. The chip was deactivated by 1 M ethanolamine-HCl (GE) at a flow rate of 10 μL/min for 420 seconds.
# The anti-C5a scFv was diluted to 0.5 μg/ml, the other samples were diluted to 2 μg/ml in running buffer 1×HBS-EP+ (0.01 M HEPES, 0.15 M NaCl, 0.003 M EDTA, 0.05% surfactant P20). […] Diluted TES buffer was injected into channel Fc1 at a flow rate of 10 μL/min for 40 s, diluted scFv was injected into channel Fc2 at a flow rate of 10 μL/min for 40 s. […] 10 mM glycine pH 1.5 as regeneration buffer was injected following every dissociation phase. The chip was regenerated with 10 mM glycine pH 1.5.
# The sensorgrams for reference channel Fc1 and buffer channel were subtracted from the test sensorgrams. Data were fitted by 1:1 kinetic binding model. Molecular weight of 8.4 kDa was used to calculate the molar concentration of the cyno antigen.
# human C5a [13] = target: T1, human C5a; experiment: SPR, scFv captured via anti-c-myc/anti-His, 5 nM human antigen as analyte, 1:1 fit
Binder,IC50 (human C5a [1]) [nM],Fold affinity (C5/C5a) (human C5 [2]) [fold],Dissociation pH 5.8 (%) (human C5 [3]),"affinity determined by ELISA, huC5 (human C5 [4]) [nM]","Inhibition of cell migration IC50 (nM), U937-C5aR cells (human C5a [5]) [nM]",Ratio between dissociation at pH 5.8 and 7.4 (human C5 [6]),Dissociation pH 7.4 (%) (human C5 [7]),IC50 (human C5a [8]) [nM],"affinity determined by ELISA, huC5a (human C5a [9]) [nM]","Inhibition of calcium influx IC50 (nM), FLIPR, Experiment #1 (human C5a [10]) [nM]","Inhibition of calcium influx IC50 (nM), FLIPR, Experiment #2 (human C5a [10]) [nM]",Kd (cynomolgus antigen [11]) [nM],koff (cynomolgus antigen [11]) [s⁻¹],kon (cynomolgus antigen [11]) [M⁻¹ s⁻¹],koff (cynomolgus antigen [12]) [s⁻¹],koff (human C5a [13]) [s⁻¹]
"E54H (humanized anti-C5a IgG4 antibody) (antibody, V domains shown, Carries F29H and E54H in VH and Y96H in VL (Kabat) relative to 16D10) VH: QVQLVQSGAEVKKPGSSVKVSCKASGYTHTDHIIHWMRQAPGQGLEWMGYIYPRHGWTNYNENFKGRVTITADKSTSTAYMELSSLRSEDTAVYYCARERNLEYFDYWGQGTTVTVSS VL: DIVLTQSPASLAVSPGQRATITCKASQSVDYEGFNYMNWYQQKPGQPPKLLIYAASNLDSGVPARFSGSGSGTDFTLTINPVEAEDTANYYCQQSNEDPHTFGGGTKVEIKR",2.57,5.6,60.8,0.0601,0.076,11.3,5.39,6.53,0.336,0.136,0.154,–,–,–,–,–
"NM2 (scFv, V domains shown, scFv expressed in E. coli BL21 (periplasmic extract)) VH: QVQLVQSGAEVKKPGSSVKVSCKASGYTFTDHIIHWMRQAPGQGLEWMGYIYPREGNTNYNENFKGRVTITADKSTSTAYMELSSLRSEDTAVYYCARERNLEYFDYWGQGTTVTVSS VL: DIVLTQSPASLAVSPGQRATITCKASQSVDYEGDNYMNWYQQKPGQPPKLLIYAASNLDSGVPARFSGSGSGTDFTLTINPVEAEDTANYYCQQSNEDPHTFGGGTKVEIK",–,–,–,–,–,–,–,–,–,–,–,190,0.133,702000,0.0783,0.000736
"N97H (humanized anti-C5a IgG4 antibody) (antibody, V domains shown, Carries F29H and N97H in VH and Y96H in VL (Kabat)) VH: QVQLVQSGAEVKKPGSSVKVSCKASGYTHTDHIIHWMRQAPGQGLEWMGYIYPREGWTNYNENFKGRVTITADKSTSTAYMELSSLRSEDTAVYYCARERHLEYFDYWGQGTTVTVSS VL: DIVLTQSPASLAVSPGQRATITCKASQSVDYEGFNYMNWYQQKPGQPPKLLIYAASNLDSGVPARFSGSGSGTDFTLTINPVEAEDTANYYCQQSNEDPHTFGGGTKVEIKR",4.71,6,49,0.0682,0.07,10.9,4.49,5.96,0.408,0.072,0.138,–,–,–,–,–
"N92H (humanized anti-C5a IgG4 antibody) (antibody, V domains shown, Carries F29H in VH and N92H and Y96H in VL (Kabat); also called N92H antibody) VH: QVQLVQSGAEVKKPGSSVKVSCKASGYTHTDHIIHWMRQAPGQGLEWMGYIYPREGWTNYNENFKGRVTITADKSTSTAYMELSSLRSEDTAVYYCARERNLEYFDYWGQGTTVTVSS VL: DIVLTQSPASLAVSPGQRATITCKASQSVDYEGFNYMNWYQQKPGQPPKLLIYAASNLDSGVPARFSGSGSGTDFTLTINPVEAEDTANYYCQQSHEDPHTFGGGTKVEIKR",3.68,3.9,54.2,0.12,0.099,6.54,8.29,6.23,0.468,0.078,0.145,–,–,–,–,–
"16D10 (humanized anti-C5a IgG4 antibody) (antibody, V domains shown, also called WT (16D10); WT) VH: QVQLVQSGAEVKKPGSSVKVSCKASGYTFTDHIIHWMRQAPGQGLEWMGYIYPREGWTNYNENFKGRVTITADKSTSTAYMELSSLRSEDTAVYYCARERNLEYFDYWGQGTTVTVSS VL: DIVLTQSPASLAVSPGQRATITCKASQSVDYEGFNYMNWYQQKPGQPPKLLIYAASNLDSGVPARFSGSGSGTDFTLTINPVEAEDTANYYCQQSNEDPYTFGGGTKVEIKR",2.03,9.3,-2.42,0.0288,0.061,-2.09,1.16,5.9,0.269,0.106,0.135,–,–,–,–,–
